hFcRN Relative Retention Time data for 2 substances are collected here from patent publication US20250163168A1, “NOVEL ANTIBODIES AND ANTIBODY CONJUGATES FOR THE TREATMENT OF METABOLIC DISORDERS” (PFIZER INC., priority 2023, published 2025).

The experiment has as its target biotinylated human FcRn (hFcRn) (human) (UniProt P55899). The experiment is described as follows: human FcRn affinity column, pH gradient 5.5 to 8.8; retention time relative to the assay control mAb-A (N = 2).

Sequence of biotinylated human FcRn (hFcRn) (human) (P55899 24-297 limits assumed, form in doubt, chain 1 of 2): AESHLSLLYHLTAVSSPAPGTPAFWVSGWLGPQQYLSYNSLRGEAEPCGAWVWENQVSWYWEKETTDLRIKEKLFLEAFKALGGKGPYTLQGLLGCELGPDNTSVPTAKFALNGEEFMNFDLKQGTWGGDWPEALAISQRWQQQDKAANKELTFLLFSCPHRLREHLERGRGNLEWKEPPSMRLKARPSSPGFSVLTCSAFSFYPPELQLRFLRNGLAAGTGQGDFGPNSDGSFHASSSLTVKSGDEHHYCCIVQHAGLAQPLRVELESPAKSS
Sequence of biotinylated human FcRn (hFcRn) (human) (chain, as listed by the source limits assumed, form in doubt, chain 2 of 2): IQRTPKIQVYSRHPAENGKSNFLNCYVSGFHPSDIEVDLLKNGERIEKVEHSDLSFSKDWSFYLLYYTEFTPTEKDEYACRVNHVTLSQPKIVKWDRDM

For “negative control (polyreactivity assays) (antibody)”, the hFcRN Relative Retention Time came out at 0.8.
With “positive control (polyreactivity assays) (antibody)”, the hFcRN Relative Retention Time amounted to 4.15.
